Biological target: T1, His-tagged human Bcl-xL (human, UniProt Q07817 1-212)
T1 construct: Bought protein; also called Hiss-tagged human Bcl-xL; not shown: His tag
Experiment: fluorescence polarization competition against fl-Bak, Kd by regression analysis
Procedure: The anisotropy experiments were performed with a DTX 880 Multimode Detector (Beckman) at 4° C., with excitation and emission wavelengths of 485 and 525 nm, respectively.

T1 sequence (Q07817 1-212): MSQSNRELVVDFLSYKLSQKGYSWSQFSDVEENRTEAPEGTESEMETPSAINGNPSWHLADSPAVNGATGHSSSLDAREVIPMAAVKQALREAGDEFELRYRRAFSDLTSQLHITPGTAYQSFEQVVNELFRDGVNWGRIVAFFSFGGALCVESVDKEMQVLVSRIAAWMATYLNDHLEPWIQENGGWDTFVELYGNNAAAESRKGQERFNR

B1: artificial Bak BH3 α-helix 10a (hydrogen bond surrogate, HBS) (peptide)
chain: QVGRQLAIIGDDINR
modifications: not fully specified; N-terminal Gly-72 replaced by a 4-pentenoic acid residue (alkene-bearing glycine mimic); Gly-75 is N-allyl-glycine; the two olefins are joined by ring-closing metathesis (carbon-carbon hydrogen bond surrogate, mixture of cis and trans alkene isomers); C-terminal amide
B1 showed a Kd of 325 nM.

Reference: patent US9221871 (NEW YORK UNIVERSITY, dated 2015)
